According to patent publication US20210299331A1, “PLURIPOTENT STEM CELL-DERIVED PLATE-SHAPED CARTILAGE AND METHOD FOR PRODUCING THE SAME” (KYOTO UNIVERSITY, priority 2018, published 2021):

B1: FGF18: Recombinant human FGF18 (PeproTech), an FGF receptor agonist added to the culture medium (protein, UniProt O76093 28-207, looked up)
Fibroblast growth factor 18: EENVDFRIHVENQTRARDDVSRKQLRLYQLYSRTSGKHIQVLGRRISARGEDGDKYAQLLVETDTFGSQVRIKGKETEFYLCMNRKGKLVGKPDGTSKECVFIEKVLENNYTALMSAKYSGWYVGFTKKGRPRKGPKTRENQQDVHFMKRYPKGQPELQKPFKYTTVTKRSRRIRPTHPA

Assays:
[1] = tested on: human iPS cell line QHJI-derived cartilaginous particles; test: In vitro integration of paired cartilaginous particles in round-bottom 96-well plate, cultured with FGFR inhibitor; assay type: cell-based
Procedure: (§1) Two cartilaginous particles were put into a well of a round-bottom 96-well plate (see FIGS. 1A and 1B) and cultured under the conditions of 37° C. and 5% CO2 in chondrogenic medium (DMEM (Sigma) with 1% ITS, 1% FBS, 2 mM L-glutamine (Thermo), 1×10^−4 M non-essential amino acids (Thermo), 1 mM sodium pyruvate (Thermo), 50 U of penicillin, […] streptomycin, 50 μg/mL ascorbic acid (Nacalai), 10 ng/mL BMP2 (Peprotech), 10 ng/mL TGFβ1 (Peprotech), and 10 ng/mL GDF5 (PTT)). In total, 84 wells, each of which contained a pair of cartilaginous particles, were prepared. The wells were divided into 7 groups (12 pairs per group), and each was subjected to macroscopic and histological analyses at the predetermined time points ([…] after the start of the integration experiment). The medium was changed every day gently and carefully so as not to change the positions of the cartilaginous particles.
To further investigate the effects of FGF on the integration, an FGFR inhibitor, NVP-BGJ398 (ChemScene LLC), was used in the culture. NVP-BGJ398 was dissolved in DMSO to prepare a 50 μM stock solution. In total, 30 new pairs of cartilaginous particles were cultured under the conditions described in the above (3). Fifteen pairs were cultured in a medium supplemented with vehicle (0.3 μL of DMSO), and the other 15 pairs were cultured in a medium supplemented with 0.3 μL of the NVP-BGJ398 stock solution (final concentration: 50 nM). After 14 days of culture, the samples were subjected to histological analysis.
(§2) The pairs of cartilaginous particles were fixed with 4% paraformaldehyde, processed, and embedded in paraffin. 20 to 150 serial sections were prepared around the integrated portion of the sample so that the sections contain the most contact area between the paired cartilaginous particles (see FIG. 1C). Serial sections with the greatest contact portion were selected and used for further analysis. The sections were stained with hematoxylin-eosin and safranin O-fast green-iron hematoxylin and immunostained with a goat anti-type I collagen antibody (Souther Biotech) and an anti-type II collagen antibody (Thermo).
(§3) For statistical analysis, the degree of integration of cartilaginous particles at each time point was graded as follows: grade 0, no integration; grade 1, perichondrium-like membrane integration; grade 2, cartilage integration (Table 2). The grades are non-parametric data, and statistical analysis was performed using the Steel-Dwass test. All the samples were graded as 0 (no integration) on day 0 and graded as 2 (cartilage integration) on day 56.

[2] = tested on: human iPS cell line QHJI-derived cartilaginous particles; test: In vitro integration of paired cartilaginous particles in round-bottom 96-well plate, cultured with FGF18; assay type: cell-based; conditions: for Grade 0 No integration (number of pairs) / Grade 1 Integration by perichondrium-like membrane (number of pairs) / Grade2 Integration by cartilage (number of pairs): 15 pairs per group
Procedure: as §1
Recombinant human FGF18 (PeproTech) was dissolved in phosphate-buffered saline (PBS) to prepare a stock solution (100 μg/mL). In total, 90 pairs of cartilaginous particles were cultured under the conditions described in the above (3). One pair per well was cultured in 0.3 mL of medium. Forty-five pairs were cultured in a medium supplemented with vehicle (0.3 μL of PBS), and the other 45 pairs were cultured in a medium supplemented with 0.3 μL of the FGF18 stock solution (final concentration: 100 ng/mL). The 45 pairs in each treatment group were further separated into three equal-sized groups and subjected to histological analysis (3, 7, or 14 days after the start of the experiment).
as §2, §3

[3] = Day 14, NVP-BGJ398 50 nM, 15 pairs per group, P < 0.01 vs Vehicle (Steel-Dwass)
[4] = Day 14, FGF18 100 ng/mL, P < 0.01 vs Vehicle (Steel-Dwass)

Row | Molecule | Grade 0 No integration (number of pairs) [1, 3] | Grade 1 Integration by perichondrium-like membrane (number of pairs) [1, 3] | Grade2 Integration by cartilage (number of pairs) [1, 3] | Pairs of cartilaginous particles that showed integration ([1]; Day 14, NVP-BGJ398 50 nM, 15 pairs, vehicle 11 out of 15) | Effect of addition to the medium on integration of cartilaginous particles ([1]; NVP-BGJ398 50 nM in medium) | Grade 0 No integration (number of pairs) ([2]; Day 3, FGF18 100 ng/mL) | Grade 1 Integration by perichondrium-like membrane (number of pairs) ([2]; Day 3, FGF18 100 ng/mL) | Grade2 Integration by cartilage (number of pairs) ([2]; Day 3, FGF18 100 ng/mL) | Grade 0 No integration (number of pairs) ([2]; Day 7, FGF18 100 ng/mL) | Grade 1 Integration by perichondrium-like membrane (number of pairs) ([2]; Day 7, FGF18 100 ng/mL) | Grade2 Integration by cartilage (number of pairs) ([2]; Day 7, FGF18 100 ng/mL) | Grade 0 No integration (number of pairs) [2, 4] | Grade 1 Integration by perichondrium-like membrane (number of pairs) [2, 4] | Grade2 Integration by cartilage (number of pairs) [2, 4] | Integration of treated cartilaginous particles (observation) ([2]; Day 14, FGF18 100 ng/mL, vehicle showed minimal integration) | Integration grade versus vehicle-treated pairs (statistics) ([2]; Day 14, Steel-Dwass test) | Effect of addition to the medium on integration of cartilaginous particles ([2]; FGF18 100 ng/mL in medium) | Histological finding in treated cartilaginous particles ([2]; FGF18 100 ng/mL, safranin O-fast green-iron hematoxylin sections)
1 | CCN1CCN(c2ccc(Nc3cc(N(C)C(=O)Nc4c(Cl)c(OC)cc(OC)c4Cl)ncn3)cc2)CC1 [NVP-BGJ398] | 15 | 0 | 0 | no pairs | inhibited the integration of cartilaginous particles | – | – | – | – | – | – | – | – | – | – | – | – | –
2 | B1 | – | – | – | – | – | 12 | 3 | 0 | 10 | 5 | 0 | 1 | 14 | 0 | substantial integration | Significant difference | accelerated the integration of cartilaginous particles | thick connection of the perichondrium-like membranes
